Reference: the nanobody polyreactivity screen of Harvey et al. (2022)

Assay: yeast display, Sf9 membrane polyspecificity reagent, FACS + sequencing; frameworks hold sequencing errors
Procedure, shortened: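 After 36–48 hours of galactose induction, yeast (Saccharomyces cerevisiae BJ5465) displaying a synthetic nanobody library were stained at 4 °C for 1 hour with 10% biotinylated, detergent-solubilized Sf9 membrane reagent. Streptavidin microbeads enriched the stained cells before FACS sorting into low and high (top ~1%) gates on anti-HA and streptavidin fluorescence. Each clone's polyreactivity label reflects its gate of origin.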

Sequence	polyreactivity (PSR sort gate)
QVQLVESVGGLDQAGGSLRLSCAASGRTFYRNAMGLYRQAPGKERELVSAITGSGGSTYYADSVKGRFTISRDNAKNTVYLQMNSLKPEDTAVYYCAAGTRIYNSLIGFDYWGQGTQVTVSS	high polyreactivity
QVQLVQSGGGLVQAGGSLRVSSAASGNIFAYYAKGWYSQAPGKERELVAAITDSGGNTFYADSVKGRFTISRDQAKNTVYLQMNSLKPEDTAVYYCAADTFYSYYDMDYWGQGTQVTVSS	low polyreactivity
QVQLVESGGGLVQAGGSLSLSCAASGFTITSYAMGWYRQAPGKERELVAAINSGGSTNYADSVKGRFTISRDNAKNTVYLQMNSLIPEDNAVYYCAAKRRSYRITYVGVGYKYGYWGLGTQVTVSS	high polyreactivity
QVQLVESRGGLVQAGGSLRLSFAASGSNFGAYAMVWYRQAPGKERELVAGITGSGGTTYYADSVKGRFTISRDNGKNTVYLQMNSLTPEDTAVYDCAKRVWVRYYYWGQGTQVTVSS	high polyreactivity
QVQLVESGGGLVQAGGSLRLSCAASGFTFPHYAMGWYRQAPGKERELVAAISWSGGNTYYADSVKGRFTISRDNAKNTVYLQMNSLKPEDTAVYYCAKGYSSHYWWAYDSWGQVTQVTVSS	high polyreactivity
QVQLVESGGGLVQAGGSLRLICAASGSILSTYAMGWYREAPGKERELVADISGRVGSTYYADSVKGRFTISRDNAKNTDYLQMNSLKPEDTAVYYCAAALDYWPGYEYYYWGQGTQVTVSS	low polyreactivity
QVQLVESGGGLVQAGGSLRLSCAASGRILFGYAMGWYRQAPGKERELVADITSTGSTNYADSVKGRFTISRDNAKNTVYLQMNSLKPEDTAVYYCNARRESYYQRYRVDYWGQGTQVTVSS	low polyreactivity
QVQLVESGGGLVQAGGSLRLSCAASGRISQSNAMGWYRQAPGKERELVAAISWRGGSTYYADSVKGRFTISRDNAKNTVYLQMNSLKPEDTAVYYCAVRGKYDRHYYWGQGTQVTVSS	high polyreactivity
QVQLVESGGGLVQAGGSLRLSCAAYGYTFRGYAMGRYRQAPGKEREFVAAINWSDGSTYYADSVKGRFTISRDNAKNTVYLQMNSLKPEDTAVYYCNADQYYRFPDNYLGQGTQVTVSS	low polyreactivity
QVQLVESGGGLVQAGGSHRLSCAASGSTFTGYAMACYRQAPGKEREFVAGNTGSGGSTYYADSVKGRFTISRDIAKNSVYFQMISLKPEDTAVYYCAASFWYHYVWLDYYWGQGTQVTVSS	low polyreactivity
QVQLVESGGGLVQAGGSLRLSCAASGRIFYYYAMGWYRQAPGKERELVATITTTGNTYYADSVKGRFTISRDNAKNTVYLQMNSLKPEDTAVYYCNAGWDLVYGYYPRRKNFDYWGQRTQVTVSS	high polyreactivity
QVQLVESGGGLVQAGGSLRLSCAASGITIFTYAMGWYRQAPGKERELVAAISGSGGSTYYADSVKGRFTISRDNAKNTVYLQMNSLKPEDTAVYSCAAEYTYGSPYDYWGQGTQVTVSS	low polyreactivity
QVQLVESGGGLVQAGGSLRLSCAASGRTLPVYAMGWYRQAPGKERELVAAITYSGGSTSYADYVKGRFTISRDNAKNTVYLQMNTLKPDDTAVYYCAAGYRYSEYYYWGQGTQVTVSS	low polyreactivity
QVQLVESGGGLVQAGGSLRLSCAASGRILGQYVMGWYRQAPGKERELVASIRSGGVSTYYADSVKGRFTISRDNAKNTVYLQMNSLKPEDTAVYYCAKGSPGPRRYKFDYWGQGTQVTVSS	low polyreactivity
QVQLVESGGGLVQAGGSLSLSCAASGSIFSYYAMGWYRQAPGKARELVAAITANGGSTSYADSVKGRFTISRDTANNTVYLQMNRLKPEDTAVYYCAKESDYPDFVSTKGDYDYWGQGTQVTVSS	low polyreactivity
QVQIVESGGGLVQPGCSLRLSCAASGRIFYVYAMGWYRQAPGTEWELVASITNGGRTNYADSVKGRFTISRDNAKNTFYLQMNSLKPEDTAVYYCATAASNYLDYVGKYRYDYWVQGTQVTVSS	low polyreactivity
QVQLVESGGVLVQAGGSLRLSCAASGLDYYAIGWYRQAPGKERELVAAIDWSGVSTYYADSVKGRFTISRDNAKNTVYLQMNSLKPEDTAVDYCAALYYGWPRVSYGLGEYGYWGQGTQVTVSS	low polyreactivity
QVQLVESGGGLVQAGGSLRLSCAASGRNFRYYAMGWYRQAPGKERELVAAITTGSSTYYADSVKGRFTISRDNAKNTVYLQMNSLKPEDTAVYYCNVFQGTRYGYWGQGTQVTVSS	low polyreactivity
QVQLVESVGGLVQAGGSLRLSCAASGFTFTYNAMGWYRQAPGKERELVAAISRNGGRTYYADSVKGRFTISRDNAKNTVYLQMNSLKPEDTAVYYCNAVYYYYYWRVSIYDYWGQGTQVTVSS	high polyreactivity
QVQLVESGGGLVQAGGSLRLSSAASGGIFRYNAMGWYRQAPGKERELVAGISYRGGTTYYADSVKGRFTISRDNAKNTVYLQMNSLKPEDTAVYYCAAAASSPGGWFYYWGQVTQVTVSS	high polyreactivity
QVQLVESGGGLVQAGGSLRLSCAASGSTFQRYTMGWYSQAPGKERELVAAISQSGGRTYYADSVKGRFTISREHAKKTVYLEMNSLKPEDTAVYSCNAASRTKFDYWGQGTQVTVSS	high polyreactivity
QVHHVESGGGLVQAGGNLRLSCQASGSTFDENDMGWYRQPQGKERELVAVISICTSTNYADSVKGRFTISRDNAKNTVYLQMNSLKPEDTAVYYFDAFVPGSYLDAIVGNAFNYWGQGTQVTVSS	low polyreactivity

Sequence	polyreactivity (PSR sort gate)
QVHLVESGGGLVQAGGSLRLSCAASGNTFYWYVMGWYRQAPGKERDLVARITSSGGSTNYADSVKGRFTISRDNAKNTVYLQMISLKPEDTAVYYCAADDIYLYGGGTDYYYWGQGTQVTVSS	low polyreactivity
QVQLVESGGGLLQAGGSLRLSCAASGSIFGVNAMGWYIQAPGKERELVASITGGDSTNYADSVKGRFTISRDNAKNTVYLQINSLKTEDTAVYYCNARVADAWASGYDYWGQGTQVTVSS	low polyreactivity
QVQLVESGGGLVQAGGSLRLSCAASGSIFAIYAMGWYRQAPGKERELVAAISYGDGSTYYADSVKGRFTISRDNAKNTVYLQMNSLKPEDTAVYYCAVGTRVKYDYWGQGTQVTVSS	high polyreactivity
QGQLVESGGGLVQAGGSLRLSCAASGRTFYRYAMGWYRQAPGKERELVAAITRRGDSTSYADSVKGRFTISRDNAKNTVYLQMNSLKPEDTAVYYCATLVQGSVYGLYGGGYWGQGTQVTVSS	low polyreactivity
QVQLVESGGGLVQAGGSLRLSCAASGRTFHNYAMGWYRQAPGKEREFVAVITGSGGRTYYADSVKGRFTISRDNAKNTVYLQMNSLKPEDTAVYYCNRVSRYYLYDYWGQGTQVTVSS	high polyreactivity
QVQLVESGGGLVQAGGSLRLSCAASGIIFDYNAMGWYRQAPGKERELVAAISGRSGRTYYADSVKGRFTISRDNAKNTVYLQMNSLKPEDTAVYYCNALRLTRDPYDYWGQGTQVTVSS	high polyreactivity
QVQLVESGGGLVQAGGSLRLSCAASGSIFYSNVMGWYRQATGKERELVAAIRYSGVGTYYADSVKGRFTISRDNAKNTVYLQMNSLKPEDTAVYYSNAVTKVGYLRRRDYWGQGTQVTVSS	low polyreactivity
QVQLVESGGGLVQAGGSLRLICAAYGGIFISYAMGWYRQAPWKERELVAAINYSGGSTNYADSVKGRFTLSRDNAKNTVYLQMNSLKPEDTAVYYCAARSTARYGYWGQGTQVTVSS	low polyreactivity
QVQLVESGGGLVQAGGSLRLSCAASAFTLLSYAMGWYRQAPGKDRELVASITQRGGSTYYADSVKGRFTISRDNAKNTVDLQMNSLKPEDTAVYYCAARSGYGYRYYYWGQGTQVTVSS	low polyreactivity
QVQLVESGGGLVQAGGSLRLSCAASGRTIRENVMGWYRQAPGKERELVAAITGNDGTTYYADSVKGRFTISRDNAKNTVYLQMNSLKPEDTAVYYCAARPYLGYIGYDYWGQGTQVTVSS	low polyreactivity
HVQLVESGGGLVQAGGSLRLSCAASGSIFVPNAMGWYRQALGKERELVAAITYSGGDTYYADSVKGRVTISRDNAMNTVYLQMNSLKPEDTAVYYCAADNGRVGYDYWGQGTQVTVSS	low polyreactivity
QVQLVESGGGLVQAGGSLRLSCAASGSIFASYAMGWYRQAPGKERELVAAISRSGTSTRYADSVKGRFTISRDNAKNTVYLQMNSLKPEDTAVYYCAARWYVFFRKYDYWGQGTQVTVSS	high polyreactivity
QVQLVESGGGLVQAGGSLRLSCPASGSTFRSNVMGWYRQAPGKERELVAAITSSGGSTYYADSVKGRFTISRDNAKNTVYLQMNSLKPEDTAVYYCAAVGYGWDPYKRLVRHSYDSWGQGTQVTVSS	low polyreactivity
QVQLVESGGGLVQAGGSLRLSCAASGRTFNPYAMGWYRQAPGKERELVAAIRWRGTRTYYADSVKGRFTISRDNAKNTVYLQMNSLKPEDTAVYYCNALLGYYRWRRPVDYSYGSWGQGTQVTVSS	high polyreactivity
QVQLVESGGGLVHAGGSLRLSCAASRRNFTRNAMGWYRQAPGKERELVAAIRRGGRTNYADSVKGRFTISRDNAKNTVYLQMNSLKPEETAVYYCNKAGWLKWAPRQYYYWGQGTQVTVSS	high polyreactivity
QVQLVESVGGLVEAGGSLRLSCAASGSILGGYAMGWYLQAPGKESELVAAITSSGGRTYYADCVKGRFTMSRDNAKNTVYLQMNSLKPEDTAVYYCAARYSRWRYNYKDYAYWGQGTQVTVSS	high polyreactivity
QVQLVESGGGLVQAGGSLRLSSAASGSTFSDYAMGWYRQAPGKERELVAAISVSDGSTYYADSVKGRFTISRDNAKNTVYLQMNSLKPEDTAVYYCAAEYPYFVYSYFRFDYWGQGTQVTVSS	low polyreactivity
QVQLEESGGGLVQAGGSLRLSCAASGRIFGVNAMGWYRQAPGKERELVAAIRYSGGSTYYADSVKGRFTISRDNAKNTVYLQMNSLKPEDTAVYYCARDVWNYWDGVFQYYSYDFDYWGQGTQVTVSS	low polyreactivity
QVQLVESGGGLVQAGGSLRLSCAASGNIFYRYAMGWYRQAPGKERELVAAISGNSGNTYYADSVKGRFTISRDNAKNTVYLQMNSLKPEDTAVYYCAVRRKSFRQTSYNYWGQGTQVTVSS	high polyreactivity
QVQLVESGGGLVQAGGSLRLSCAASGRTFGWYAMGWYRQAPGKERELVAAITYPTGSTYYADSVKGRFTISRDNAKNTVYLQMNSLKPEDTAVYYCAAQGYISAGYKYDYWGQGTQVTVSS	low polyreactivity
QVQLVESGGGLVQAGGSLRLSCAASGNIFLDYAMGWYRQAPGKEREWVAAITSGGSTNYADSVKGRFTISRDNAKNTVYLQMNSLKPEDTAVYYCNKDVWDGYDWPEFDYWGQGTQVTVSS	low polyreactivity
